Measurements taken from paper PMC4027207, “Molecular dissection of the domain architecture and catalytic activities of human PrimPol” (Nucleic Acids Research, 2014).

Legend:
PrimPol1–354 = biological target: T1, PrimPol1–354 (Homo sapiens, UniProt Q96LW4); assay: gel-based single nucleotide primer extension; assay type: biochemical; settings: opposite templating cytosines; 200 uM dNTP, 10 mM MgCl2, pH 7.0
T1 construct: gene PRIMPOL; AEP polymerase domain, residues 1-354, lacks zinc finger; E. coli, Ni-NTA
T1 sequence (Q96LW4 1-354): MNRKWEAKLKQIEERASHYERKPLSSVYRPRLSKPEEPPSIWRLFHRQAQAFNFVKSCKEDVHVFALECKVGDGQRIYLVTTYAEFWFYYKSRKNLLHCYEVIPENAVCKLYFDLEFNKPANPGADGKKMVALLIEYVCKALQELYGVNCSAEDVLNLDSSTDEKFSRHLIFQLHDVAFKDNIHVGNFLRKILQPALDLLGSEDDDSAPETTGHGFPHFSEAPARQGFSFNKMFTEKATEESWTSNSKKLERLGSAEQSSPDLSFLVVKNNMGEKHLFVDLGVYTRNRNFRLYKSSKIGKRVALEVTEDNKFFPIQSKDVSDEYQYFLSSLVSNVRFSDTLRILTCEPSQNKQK

[1] = biological target: T2, human PrimPol (wild-type, full-length) (Homo sapiens, UniProt Q96LW4); assay: gel-based single nucleotide primer extension; assay type: biochemical; settings: 200 uM dNTP
T2 construct: full length (560 residues), E. coli BL21(pLysS), Ni-NTA, heparin and gel filtration
T2 sequence (Q96LW4 1-560): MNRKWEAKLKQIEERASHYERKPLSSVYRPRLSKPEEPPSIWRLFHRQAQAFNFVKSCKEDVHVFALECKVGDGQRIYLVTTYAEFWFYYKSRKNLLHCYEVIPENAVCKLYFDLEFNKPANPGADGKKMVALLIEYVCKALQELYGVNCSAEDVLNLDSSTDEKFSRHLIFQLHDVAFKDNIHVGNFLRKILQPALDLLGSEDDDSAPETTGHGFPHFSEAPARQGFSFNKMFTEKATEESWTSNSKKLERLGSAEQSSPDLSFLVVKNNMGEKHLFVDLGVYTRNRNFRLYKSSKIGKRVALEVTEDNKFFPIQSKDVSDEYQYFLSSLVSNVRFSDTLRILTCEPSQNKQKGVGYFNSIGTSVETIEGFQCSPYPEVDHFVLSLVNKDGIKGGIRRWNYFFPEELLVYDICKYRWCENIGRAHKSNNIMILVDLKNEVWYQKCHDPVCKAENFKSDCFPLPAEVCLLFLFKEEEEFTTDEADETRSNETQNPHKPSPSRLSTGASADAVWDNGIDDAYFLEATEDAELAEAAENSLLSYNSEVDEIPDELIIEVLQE

[2] = biological target: T3, PrimPol1-354 (AEP polymerase domain) (Homo sapiens, UniProt Q96LW4 1-354); assay: EMSA; 10 mM Mg2+; 40 nM DNA; shift evident at ~0.5 uM protein, complete at 5 uM; 10 mM Bis-Tris-Propane-HCl pH 7.0, 10 mM MgCl2, 1 mM DTT, 40 nM DNA, 25°C, 60 min; 5% polyacrylamide gel in 0.5x TBE; settings: protein: recombinant, tags: His (Ni-NTA purified)
T3 sequence: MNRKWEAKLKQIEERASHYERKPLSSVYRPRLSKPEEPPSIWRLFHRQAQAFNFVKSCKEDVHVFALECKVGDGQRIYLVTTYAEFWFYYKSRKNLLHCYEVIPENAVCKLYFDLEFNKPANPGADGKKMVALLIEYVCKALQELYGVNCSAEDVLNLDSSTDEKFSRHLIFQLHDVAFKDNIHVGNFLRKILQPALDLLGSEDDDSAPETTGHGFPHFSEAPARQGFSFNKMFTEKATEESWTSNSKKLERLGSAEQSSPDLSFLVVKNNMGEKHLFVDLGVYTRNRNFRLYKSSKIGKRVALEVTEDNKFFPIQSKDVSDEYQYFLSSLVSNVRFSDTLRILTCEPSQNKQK

[3] = biological target: T4, PrimPol372-560 (zinc finger domain) (Homo sapiens, UniProt Q96LW4 372-560); assay: EMSA; 10 mM Mg2+; 40 nM DNA; protein 0.05-20 uM; 10 mM Bis-Tris-Propane-HCl pH 7.0, 10 mM MgCl2, 1 mM DTT, 40 nM DNA, 25°C, 60 min; 5% polyacrylamide gel in 0.5x TBE; settings: protein: recombinant; tags: His (Ni-NTA purified); label: 5'-Hex
T4 sequence: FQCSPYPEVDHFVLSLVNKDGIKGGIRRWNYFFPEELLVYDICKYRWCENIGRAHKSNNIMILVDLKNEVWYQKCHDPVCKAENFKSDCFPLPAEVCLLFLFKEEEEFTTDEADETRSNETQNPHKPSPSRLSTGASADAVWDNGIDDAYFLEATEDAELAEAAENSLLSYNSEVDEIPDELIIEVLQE

[4] = biological target: T4, PrimPol372-560 (zinc finger domain); assay: EMSA; 10 mM Mg2+; 40 nM DNA; no shift, protein 0.05-20 uM; 10 mM Bis-Tris-Propane-HCl pH 7.0, 10 mM MgCl2, 1 mM DTT, 40 nM DNA, 25°C, 60 min; 5% polyacrylamide gel in 0.5x TBE; settings: protein: recombinant; tags: His (Ni-NTA purified); label: 5'-Hex on strand 1; blunt

Nc1nc2c(ncn2[C@H]2C[C@H](O)[C@@H](COP(=O)(O)OP(=O)(O)OP(=O)(O)O)O2)c(=O)[nH]1 [dGTP] was tested, and the “gel-based single nucleotide primer extension” value (PrimPol1–354) was “All four of these PrimPol constructs inserted two guanine nucleotides opposite two cytosines” and the “gel-based single nucleotide primer extension” value ([1]; opposite templating cytosines, 10 mM MgCl2, pH 7.0) was “all incorporated two correct incoming guanine nucleotides opposite the templating cytosines”.

In the case of Nc1ncnc2c1ncn2[C@H]1C[C@H](O)[C@@H](COP(=O)(O)OP(=O)(O)OP(=O)(O)O)O1 [dATP], the “gel-based single nucleotide primer extension” value ([1]; template-independent extension, 10 mM MgCl2, 1 mM MnCl2, pH 7.0, 37 °C) is reported as “promiscuous DNA synthesis was most efficient when enzyme was utilising dATP or dTTP”.

TGTCGTCTGTTCGGTCGTTCGGTCTTCAAGGCTGTTGTGCGCCCTGCGCG (ssDNA) [HP-50 ssDNA (sequence 7)]: binds ([2]; label: 5'-Hex); binds [3].

B1: HP-50/ND-50 dsDNA (sequence 6 annealed to 7) (dsDNA)
DNA 1: TGTCGTCTGTTCGGTCGTTCGGTCTTCAAGGCTGTTGTGCGCCCTGCGCG
DNA 2: CGCGCAGGGCGCACAACAGCCTTGAAGACCGAACGACCGAACAGACGACA
B1: no binding [4]; binds ([2]; label: 5'-Hex on strand 1, blunt).
